Experimental data as given in article PMC12183618.

Tests used:
[1] = target: MmpL10‐mEGFP‐FLMsm (Mycobacterium smegmatis); experiment: negative-stain electron microscopy; top SEC peak fraction in LMNG at 0.5 μM, uranyl acetate 1%; low-resolution map, C1 symmetry, fitted with a trimeric AlphaFold v3 model
[2] = target: MmpL10‐mEGFP‐FLMsm (Mycobacterium smegmatis); experiment: SEC; Superose 6 Increase 10/300 GL, 50 mM Tris-HCl pH 8, 150 mM NaCl, 3x CMC LMNG (m1 also in DDM and LDAO); apparent MW from a calibration curve

MmpL10‐mEGFP‐FLMsm (natural protein) was tested, and the stoichiometry N [1] was 3 and the stoichiometry N [2] was 3.
